Patent US20090041770A1

These substances were tested against human FcRn fused to a His-tag and glutathione S transferase (FcRn-His-GST), complex of FcRn heavy chain with beta-2-microglobulin (human) (UniProt P55899) (assay: AlphaScreen competition, 25 mM NaCl).

Row | Substance | Medan Fold Increase
1 | P257N/^281S (antibody) | 5.99

These substances were tested against human FcRn fused to a His-tag and glutathione S transferase (FcRn-His-GST), complex of FcRn heavy chain with beta-2-microglobulin (human) (UniProt P55899) (assay: AlphaScreen competition).

Row | Substance | FcRn Binding ratio Variant / WT
2 | V266I (antibody) | 1.17
3 | T335W (antibody) | 1.35
4 | Y296E (antibody) | 1.23
5 | D265F/N297E/I332E (antibody) | 1.38
6 | E272H (antibody) | 1.45
7 | G236I (antibody) | 1.33
8 | N276V (antibody) | 1.27
9 | E272Y (antibody) | 2.08
10 | P238T (antibody) | 1.12
11 | S324G (antibody) | 2.74
12 | L235Q (antibody) | 1.67
13 | V264F (antibody) | 1.07
14 | K320W (antibody) | 1.11
15 | F243E (antibody) | 1.14
16 | P230E (antibody) | 1.01
17 | D270I (antibody) | 1.23
18 | A327H (antibody) | 1.29
19 | G237R (antibody) | 1.36
20 | E233Y (antibody) | 1.86
21 | A330W (antibody) | 1.02
22 | G236Y (antibody) | 1.52
23 | G237N (antibody) | 1.39
24 | E294G (antibody) | 1.25
25 | L328W (antibody) | 1.35
26 | E283H (antibody) | 6.25

Row | Substance | FcRn Binding ratio Variant / WT
27 | G281D (antibody) | 1.33
28 | H285Y (antibody) | 1.25
29 | S239D/D265H/N297D/I332E (antibody) | 1.26
30 | G237M (antibody) | 73.4
31 | N276D (antibody) | 1.18
32 | H224E (antibody) | 5.11
33 | K274G (antibody) | 1.04
34 | A330P (antibody) | 5.48
35 | P238H (antibody) | 1.46
36 | L235Y (antibody) | 1.02
37 | G237I (antibody) | 1.01
38 | E269K (antibody) | 1.23
39 | N286E (antibody) | 2.12
40 | P271Y (antibody) | 1.48
41 | G236V (antibody) | 1.35
42 | E269Y (antibody) | 24.8
43 | V263I (antibody) | 2.71
44 | P228Y (antibody) | 1.45
45 | E318Y (antibody) | 6.14
46 | T299H (antibody) | 2.03
47 | L234G (antibody) | 2.54
48 | Y300N (antibody) | 1.14
49 | K246Y (antibody) | 2.47
50 | L234I (antibody) | 1.26
51 | E272P (antibody) | 2.17

Row | Substance | FcRn Binding ratio Variant / WT
52 | V264N (antibody) | 3.39
53 | T260D (antibody) | 1.71
54 | V264I (antibody) | 1.32
55 | P238N (antibody) | 1.15
56 | L235T (antibody) | 1.65
57 | L328H/I332E (antibody) | 1.16
58 | S239D/K326T/I332E (antibody) | 2.22
59 | G236D (antibody) | 1.53
60 | Y300K (antibody) | 1.01
61 | D265P (antibody) | 1.18
62 | H285E (antibody) | 1.93
63 | P271A (antibody) | 1.01
64 | S239D/E272I/I332E (antibody) | 1.81
65 | P331Y (antibody) | 6.06
66 | E294I (antibody) | 1.09
67 | S239E/V264I/A330Y/I332E (antibody) | 2.36
68 | N276L (antibody) | 1.21
69 | G236F (antibody) | 1.75
70 | S239D (antibody) | 1.73
71 | E272T (antibody) | 2.46
72 | T335I (antibody) | 1.41
73 | S304T (antibody) | 2.86
74 | A327M (antibody) | 1.08
75 | P227E (antibody) | 1.49
76 | S239E/I332E (antibody) | 1.34

Other lines, results leading:

Row | FcRn Binding ratio Variant / WT | Substance
77 | 1.74 | D265G (antibody)
78 | 2.24 | S267E (antibody)
79 | 1.44 | P238I (antibody)
80 | 1.48 | G237H (antibody)
81 | 5.66 | D221K (antibody)
82 | 1.89 | G236N (antibody)
83 | 1.46 | G281Y (antibody)
84 | 1.27 | Y278V (antibody)
85 | 1.42 | E283Y (antibody)
86 | 2.56 | P291H (antibody)
87 | 1.25 | T335V (antibody)
88 | 2.41 | P238F (antibody)
89 | 1.16 | T335H (antibody)
90 | 2.06 | D249Q (antibody)
91 | 1.63 | V303E (antibody)
92 | 1.5 | T335L (antibody)
93 | 1.77 | P228G (antibody)
94 | 1.18 | N276F (antibody)
95 | 1.71 | Y296I (antibody)
96 | 1.27 | S324D (antibody)
97 | 1.89 | F241Y/F243Y/V262T/V264T (antibody)
98 | 1.27 | Y300E (antibody)

Row | FcRn Binding ratio Variant / WT | Substance
99 | 1.01 | A327D (antibody)
100 | 3.85 | T299Y (antibody)
101 | 1.96 | E333F (antibody)
102 | 1.26 | E269I (antibody)
103 | 1.42 | T335S (antibody)
104 | 1.75 | G236A (antibody)
105 | 1.01 | K274M (antibody)
106 | 1.09 | Y300V (antibody)
107 | 4.6 | S239L (antibody)
108 | 1.12 | S239D/I332D (antibody)
109 | 1.82 | L328R (antibody)
110 | 1.56 | P232K (antibody)
111 | 1.19 | S304N (antibody)
112 | 1.49 | S239D/E272S/I332E (antibody)
113 | 3.2 | I332N (antibody)
114 | 1.45 | R292E (antibody)
115 | 10.1 | S239E/V264I/S298A/A330Y/I332E (antibody)
116 | 1.16 | R255E (antibody)
117 | 1.15 | V303Y (antibody)
118 | 1.33 | Y278N (antibody)
119 | 1.12 | S239T (antibody)
120 | 1.74 | Y278L (antibody)

Row | FcRn Binding ratio Variant / WT | Substance
121 | 1.1 | E233S (antibody)
122 | 1.16 | V282G (antibody)
123 | 1.01 | A330G (antibody)
124 | 2.01 | K320N (antibody)
125 | 1.01 | A327K (antibody)
126 | 1.83 | E272R (antibody)
127 | 1.29 | G237S (antibody)
128 | 1.52 | G236W (antibody)
129 | 4.29 | L328Q/I332E (antibody)
130 | 2.78 | Y296L (antibody)
131 | 5.46 | E333M (antibody)
132 | 2.9 | N286P (antibody)
133 | 3.71 | P238E (antibody)
134 | 59.3 | I332V (antibody)
135 | 1.09 | F241E (antibody)
136 | 1.7 | S267K (antibody)
137 | 1.76 | H285K (antibody)
138 | 1.03 | L234I/L235D (antibody)
139 | 1.52 | Y278I (antibody)
140 | 1.91 | V282E (antibody)
141 | 1.23 | T335N (antibody)
142 | 1.48 | L234H (antibody)

Row | FcRn Binding ratio Variant / WT | Substance
143 | 1.71 | P238L (antibody)
144 | 1.39 | G237Q (antibody)
145 | 1.02 | K274F (antibody)
146 | 1.25 | L234E (antibody)
147 | 1.07 | Y300G (antibody)
148 | 1.28 | V240I (antibody)
149 | 2.33 | P238M (antibody)
150 | 1.71 | H268E (antibody)
151 | 1.36 | R292Y (antibody)
152 | 7.3 | T260H (antibody)
153 | 1.23 | Y278R (antibody)
154 | 1.23 | Y278S (antibody)
155 | 1.43 | P238V (antibody)
156 | 1.45 | N325D (antibody)
157 | 3.16 | P329W (antibody)
158 | 1.11 | S239Q/I332N (antibody)
159 | 1.5 | A330L/I332E (antibody)
160 | 3.91 | P331F (antibody)
161 | 1.19 | E269W (antibody)
162 | 1.04 | S239R (antibody)
163 | 5.49 | T260E (antibody)
